Patent US20050260197A1 (IMMUNEX, published 2005)

Key:
[1] = target: T1, recombinant human leukemia inhibitory factor (125I-labeled) (human, UniProt P15018 23-202, radioiodinated (125I)); test: 125I-LIF binding to Fc fusion captured on Protein A beads
T1 construct: also called LIF; 125I-LIF
Protocol: (§1) The transfected cells were cultured to allow expression and secretion of the fusion proteins into the culture medium. Cross-linked agarose beads bearing Protein A (Protein A Sepharose CL-4B, Pharmacia Biotech, Inc., Piscataway, N.J.) were added to the culture supernatants, whereupon the fusion proteins bound to the beads via the interaction of the Fc moiety with the Protein A. Radioiodinated oncostatin M or radioiodinated LIF was also added to the culture supernatants. Preparation of ¹²⁵I-oncostatin M is described in example 2 above. Among the known procedures for purifying and radioiodinating LIF are those described in example 1 of U.S. Pat. No. 5,284,755. The ¹²⁵I-LIF employed in this assay was recombinant human LIF labeled with 125I using the enzymobead reagent (BioRad).
(§2) The culture supernatants were incubated with the Protein A beads and ¹²⁵I-LIF or ¹²⁵I-oncostatin M for 18 hours at 4° C. Free and cell-bound ¹²⁵I-LIF or ¹²⁵i-oncostatin M were separated by low speed centrifugation through a single step density gradient of 3% glucose in PBS. The bead-bound radioiodinated proteins were quantified on a Packard Autogamma counter.

[2] = target: T2, oncostatin M (125I-labeled) (UniProt P13725 26-221, limits assumed, radioiodinated (125I)); test: 125I-oncostatin M binding to Fc fusion captured on Protein A beads
T2 construct: also called OSM; 125I-OSM
T2 sequence (looked up): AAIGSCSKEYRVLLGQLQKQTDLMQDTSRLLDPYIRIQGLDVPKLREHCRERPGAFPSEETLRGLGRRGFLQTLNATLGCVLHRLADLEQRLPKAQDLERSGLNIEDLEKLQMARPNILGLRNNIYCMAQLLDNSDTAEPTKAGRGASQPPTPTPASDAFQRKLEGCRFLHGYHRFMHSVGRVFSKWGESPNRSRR
Protocol: as §1, §2

[3] = target: T1, recombinant human leukemia inhibitory …; test: 125I-LIF binding to Fc fusions captured on Protein A beads
Protocol: as §1, §2

T1 sequence (P15018 23-202 limits assumed): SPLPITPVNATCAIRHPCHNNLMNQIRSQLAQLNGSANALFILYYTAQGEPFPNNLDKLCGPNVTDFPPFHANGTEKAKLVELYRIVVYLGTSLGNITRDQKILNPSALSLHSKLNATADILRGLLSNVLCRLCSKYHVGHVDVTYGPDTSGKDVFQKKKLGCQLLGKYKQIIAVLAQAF

B1: soluble human gp130/Fc fusion protein (Fc fusion)
chain: ELLDPCGYISPESPVVQLHSNFTAVCVLKEKCMDYFHVNANYIVWKTNHFTIPKEQYTIINRTASSVTFTDIASLNIQLTCNILTFGQLEQNVYGITIISGLPPEKPKNLSCIVNEGKKMRCEWDGGRETHLETNFTLKSEWATHKFADCKAKRDTPTSCTVDYSTVYFVNIEVWVEAENALGKVTSDHINFDPVYKVKPNPPHNLSVINSEELSSILKLTWTNPSIKSVIILKYNIQYRTKDASTWSQIPPEDTASTRSSFTVQDLKPFTEYVFRIRCMKEDGKGYWSDWSEEASGITYEDRPSKAPSFWYKIDPSHTQGYRTVQLVWKTLPPFEANGKILDYEVTLTRWKSHLQNYTVNATKLTVNLTNDRYLATLTVRNLVGKSDAAVLTIPACDFQATHPVMDLKAFPKDNMLWVEWTTPRESVKKYILEWCVLSDKAPCITDWQQEDGTVHRTYLRGNLAESKCYLITVTPVYADGPGSPESIKAYLKQAPPSKGPTVRTKKVGKNEAVLEWDQLPVDVQNGFIRNYTIFYRTIIGNETAVNVDSSHTEYTLSSLTSDTLYMVRMAAYTDEGGKDGPEPRSCDKTHTCPPCPAPELLGGPSVFLFPPKPKDTLMISRTPEVTCVVVDVSHEDPEVKFNWYVDGVEVHNAKTKPREEQYNSTYRVVSVLTVLHQDWLNGKDYKCKVSNKALPAPMQKTISKAKGQPREPQVYTLPPSRDELTKNQVSLTCLVKGFYPRHIAVEWESNGQPENNYKTTPPVLDSDGSFFLYSKLTVDKSRWQQGNVFSCSVMHEALHNHYTQKSLSLSPGK
notes: Tested from culture supernatant, captured on Protein A beads; also called soluble gp130/Fc; experiment B; not shown: 7 amino acid peptide linker encoded by the polylinker of plasmid hIgG1Fc
binding result [1]: no binding

B2: soluble OSM-Rβ/Fc fusion protein (Fc fusion)
chain: ERLPLTPVSLKVSTNSTRQSLHLQWTVHNLPYHQELKMVFQIQISRIETSNVIWVGNYSTTVKWNQVLHWSWESELPLECATHFVRIKSLVDDAKFPEPNFWSNWSSWEEVSVQDSTGQDILFVFPKDKLVEEGTNVTICYVSRNIQNNVSCYLEGKQIHGEQLDPHVTAFNLNSVPFIRNKGTNIYCEASQGNVSEGMKGIVLFVSKVLEEPKDFSCETEDFKTLHCTWDPGTDTALGWSKQPSQSYTLFESFSGEKKLCTHKNWCNWQITQDSQETYNFTLIAENYLRKRSVNILFNLTHRVYLMNPFSVNFENVNATNAIMTWKVHSIRNNFTYLCQIELHGEGKMMQYNVSIKVNGEYFLSELEPATEYMARVRCADASHFWKWSEWSGQNFTTLEAAPSEAPDVWRIVSLEPGNHTVTLFWKPLSKLVEPRSCDKTHTCPPCPAPELLGGPSVFLFPPKPKDTLMISRTPEVTCVVVDVSHEDPEVKFNWYVDGVEVHNAKTKPREEQYNSTYRVVSVLTVLHQDWLNGKDYKCKVSNKALPAPMQKTISKAKGQPREPQVYTLPPSRDELTKNQVSLTCLVKGFYPRHIAVEWESNGQPENNYKTTPPVLDSDGSFFLYSKLTVDKSRWQQGNVFSCSVMHEALHNHYTQKSLSLSPGK
notes: Truncated extracellular domain of OSM-Rβ; Tested from culture supernatant, captured on Protein A beads; also called experiment D
binding result [1]: no binding
binding result [2]: no binding

B3: proteins expressed by cells co-transfected with vectors encoding soluble OSM-Rβ/Fc and soluble gp130/Fc (Fc fusion)
chain 1: ERLPLTPVSLKVSTNSTRQSLHLQWTVHNLPYHQELKMVFQIQISRIETSNVIWVGNYSTTVKWNQVLHWSWESELPLECATHFVRIKSLVDDAKFPEPNFWSNWSSWEEVSVQDSTGQDILFVFPKDKLVEEGTNVTICYVSRNIQNNVSCYLEGKQIHGEQLDPHVTAFNLNSVPFIRNKGTNIYCEASQGNVSEGMKGIVLFVSKVLEEPKDFSCETEDFKTLHCTWDPGTDTALGWSKQPSQSYTLFESFSGEKKLCTHKNWCNWQITQDSQETYNFTLIAENYLRKRSVNILFNLTHRVYLMNPFSVNFENVNATNAIMTWKVHSIRNNFTYLCQIELHGEGKMMQYNVSIKVNGEYFLSELEPATEYMARVRCADASHFWKWSEWSGQNFTTLEAAPSEAPDVWRIVSLEPGNHTVTLFWKPLSKLVEPRSCDKTHTCPPCPAPELLGGPSVFLFPPKPKDTLMISRTPEVTCVVVDVSHEDPEVKFNWYVDGVEVHNAKTKPREEQYNSTYRVVSVLTVLHQDWLNGKDYKCKVSNKALPAPMQKTISKAKGQPREPQVYTLPPSRDELTKNQVSLTCLVKGFYPRHIAVEWESNGQPENNYKTTPPVLDSDGSFFLYSKLTVDKSRWQQGNVFSCSVMHEALHNHYTQKSLSLSPGK
chain 2: ELLDPCGYISPESPVVQLHSNFTAVCVLKEKCMDYFHVNANYIVWKTNHFTIPKEQYTIINRTASSVTFTDIASLNIQLTCNILTFGQLEQNVYGITIISGLPPEKPKNLSCIVNEGKKMRCEWDGGRETHLETNFTLKSEWATHKFADCKAKRDTPTSCTVDYSTVYFVNIEVWVEAENALGKVTSDHINFDPVYKVKPNPPHNLSVINSEELSSILKLTWTNPSIKSVIILKYNIQYRTKDASTWSQIPPEDTASTRSSFTVQDLKPFTEYVFRIRCMKEDGKGYWSDWSEEASGITYEDRPSKAPSFWYKIDPSHTQGYRTVQLVWKTLPPFEANGKILDYEVTLTRWKSHLQNYTVNATKLTVNLTNDRYLATLTVRNLVGKSDAAVLTIPACDFQATHPVMDLKAFPKDNMLWVEWTTPRESVKKYILEWCVLSDKAPCITDWQQEDGTVHRTYLRGNLAESKCYLITVTPVYADGPGSPESIKAYLKQAPPSKGPTVRTKKVGKNEAVLEWDQLPVDVQNGFIRNYTIFYRTIIGNETAVNVDSSHTEYTLSSLTSDTLYMVRMAAYTDEGGKDGPEPRSCDKTHTCPPCPAPELLGGPSVFLFPPKPKDTLMISRTPEVTCVVVDVSHEDPEVKFNWYVDGVEVHNAKTKPREEQYNSTYRVVSVLTVLHQDWLNGKDYKCKVSNKALPAPMQKTISKAKGQPREPQVYTLPPSRDELTKNQVSLTCLVKGFYPRHIAVEWESNGQPENNYKTTPPVLDSDGSFFLYSKLTVDKSRWQQGNVFSCSVMHEALHNHYTQKSLSLSPGK
notes: also called OSM-Rβ/Fc and gp130/Fc; experiment F; not shown: 7 amino acid peptide linker encoded by the polylinker of plasmid hIgG1Fc
binding result [3]: no binding
